Assay results taken from PMC2921345.
One block for each substance: values may come before it.

Experiments:
[1] = biological target: mRFP-Toca-1 (Transducer of Cdc42-dependent actin assembly, wild type); experiment: AP-FRET (acceptor photobleaching FRET) in transfected cells
[2] = biological target: mRFP-Toca-1 (Transducer of Cdc42-dependent actin assembly, wild type) (human); experiment: FRET or BRET; frequency-domain FLIM of the GFP donor (LIFA system, 40 MHz) in cells co-expressing GFP and mRFP proteins; lifetime of GFP in cells approximately 2.2 ns
Sequence of mRFP-Toca-1 (Transducer of Cdc42-dependent actin assembly, wild type) (human) (Q5T0N5 whole entry): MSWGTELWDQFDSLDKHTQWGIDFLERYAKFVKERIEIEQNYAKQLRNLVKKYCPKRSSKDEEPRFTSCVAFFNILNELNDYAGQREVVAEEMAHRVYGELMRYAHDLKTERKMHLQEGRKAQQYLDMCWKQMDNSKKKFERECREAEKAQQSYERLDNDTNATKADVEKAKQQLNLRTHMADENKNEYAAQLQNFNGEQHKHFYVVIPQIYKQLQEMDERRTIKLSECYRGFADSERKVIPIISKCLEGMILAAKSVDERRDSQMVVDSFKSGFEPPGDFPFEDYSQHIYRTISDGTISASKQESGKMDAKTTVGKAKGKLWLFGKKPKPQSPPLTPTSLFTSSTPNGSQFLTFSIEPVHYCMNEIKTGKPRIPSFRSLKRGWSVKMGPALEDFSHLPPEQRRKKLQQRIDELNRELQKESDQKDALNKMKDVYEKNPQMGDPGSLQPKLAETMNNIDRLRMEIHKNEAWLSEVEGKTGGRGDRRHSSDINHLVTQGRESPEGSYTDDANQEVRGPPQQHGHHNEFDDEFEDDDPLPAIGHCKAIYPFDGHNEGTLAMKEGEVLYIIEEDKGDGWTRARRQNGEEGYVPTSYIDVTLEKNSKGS

[3] = biological target: GFP-N-WASP (neuronal Wiskott Aldrich syndrome protein, wild type) (UniProt O08816); experiment: AP-FRET (acceptor photobleaching FRET) in transfected cells; details: mRFP-Toca-1MGD383-385IST and GFP-N-WASP; 36 hr expression; n = 7-10, from 2-3 experiments

other: FRET efficiency ([1]; ROI on tubules, mRFP-Toca-1, HA-N-WASP and GFP-Cdc42G12V co-expressed, 36 hours expression): 9%
other: FRET efficiency ([1]; ROI on vesicles, mRFP-Toca-1, HA-N-WASP and GFP-Cdc42G12V co-expressed, 36 hours expression): 0.03%
Substance: Cdc42 (wild type) G12V

GFP donor lifetime (FLIM), in tubules [2]: 1.59 ns
GFP donor lifetime (FLIM), in vesicles [2]: 1.64 ns
Substance: GFP-N-WASP (neuronal Wiskott Aldrich syndrome protein, wild type) (from UniProt O08816 1-501) (natural protein)

other: FRET efficiency ([1]; mRFP-Toca-1 and GFP-N-WASPH208D, 36 hr expression, n = 7-10, from 2-3 experiments): 3.87%
Substance: GFP-N-WASP (neuronal Wiskott Aldrich syndrome protein, wild type) (from UniProt O08816) H208D

other: FRET efficiency [3]: 17.5%
Substance: mRFP-Toca-1 (Transducer of Cdc42-dependent actin assembly, wild type) M383I; G384S; D385T
